According to US12226476B2, “Helper epitope peptide and application thereof” (CHINA PHARMACEUTICAL UNIVERSITY, priority 2018, dated 2025):
Non-standard residues stand in square brackets, D forms with d. Phe(4-NO2) = N[C@@H](Cc1ccc([N+](=O)[O-])cc1)C(=O)O

Legend:
Experiment in all cases: Antibody titer in serum of immunized mice, indirect ELISA
Assay type in all cases: in vivo
PD-L1 molecule = settings: FIG. 2; compared with the PD-L1 group and the PD-L1-PADRE group; mice immunized subcutaneously, 50 μg, Freund's adjuvant
Experimental: (§1) The protocol is as follows: • (1) The helper epitope was connected to individual antigens or antigen epitope with the linking peptide to construct multiple fusion antigens. The sequence of the linking peptide is GPSL (i.e. Gly-Pro-Ser-Leu) (SEQ ID NO:51). • (2) The fusion antigens from (1) were emulsified adequately with complete Freund's adjuvant of the same volume. Then to immunize mice via subcutaneous injection with the emulsion at the dose of 50 μg per mouse. The strains of experimental mice including C57, Fvb and Balb/C. After 7 days and 14 days of first immunization, the fusion antigens from (1) were emulsified adequately with incomplete Freund's adjuvant of the same volume and then to immunize mice via subcutaneous injection with the emulsion at the dose of 50 μg per mouse. • (3) There are two detection methods. One is to obtain the orbital blood of immunized mice on 7, 14, 21 and 28 day respectively, centrifuge the whole blood to get the serum. Then the antibody titer is detected by indirect ELISA. The other one is: one week after the last immunization, the mice are killed to get the spleen. PBMC (peripheral blood mononuclear cells) are isolated, and the CTL-mediated cytotoxicity is detected by LDH (lactate dehydrogenase) kit.
(§2) The first step was to construct the fusion antigen. According to each fusion antigen, C57BL/6 female mice aged 6-8 weeks were randomly divided into three groups with 6 mice in each group. They were PBS group, existing antigen or antigen epitope group, antigen-PADRE or antigen epitope-PADRE group, and vaccine group containing fusion antigen.
(§3) In the second step, using fusion antigen to immunize mice via subcutaneous injection for 3 times […] 50 μg each time. Mixed with Freund's adjuvant of the same volume.
(§4) Method 1: The whole blood was collected every week after immunization and centrifugated at 6000 rpm for 20 min to obtain the serum for a total of 4 weeks. Antibody titers were detected by indirect ELISA as follows: • (1) Coating: the existing antigen or antigen epitope was diluted to 5 μg/mL with coating solution. Then the 100 μL mixed solution was added into each well of enzyme immunoassay test strip, and incubated in 37° C. incubator for 2 h; • (2) use PBST to wash each well 5 times for 5 min each time; • (3) Sealing: 150 μL locking solution was added to each well of the enzyme immunoassay test strip and incubated at 4° C. overnight. • (4) Repeat step (2); • (5) Incubation first antibody: the collected mouse serum was diluted with antibody diluent. Then the 100 μL mixed solution was added into each well, and incubated at 37° C. for 2 h; • (6) Repeat step (2); • (7) Incubating secondary antibodies: HRP-GOAT Anti-mouse IgG was diluted with antibody dilution in the ratio of 1:10000, and 100 μL dilution was added to each well, and incubated at 37° C. for 45 min; • (8) Repeat step (2); • (9) Substrate addition: 100 μL TMB substrate reaction solution was added into each well of enzyme label, and incubated at 37° C. for 15 min in darkness. • (10) Termination reaction: 50 μL 2M H2SO4 was added into each well to terminate the reaction. • (11) Color development: the absorbance value of the sample in each well was detected at 450/630 nm.

EGFR = settings: FIG. 4; compared with the EGFR group and the EGFR-PADRE group; mice immunized subcutaneously, 50 μg, Freund's adjuvant
Experimental: as §1, §2, §3, §4

CD20 = settings: FIG. 5; compared with the CD20 group and the CD20-PADRE group; mice immunized subcutaneously, 50 μg, Freund's adjuvant
Experimental: as §1, §2, §3, §4

CD66e = settings: FIG. 6; compared with the CD66e group and the CD66e-PADRE group; mice immunized subcutaneously, 50 μg, Freund's adjuvant
Experimental: as §1, §2, §3, §4

[1] = tested on: VEGFR extracellular domain; settings: FIG. 8; compared with the VEGFR extracellular region group and the VEGFR-PADRE group; mice immunized subcutaneously, 50 μg, Freund's adjuvant
Experimental: as §1, §2, §3, §4

IL-2Ra = settings: FIG. 9; compared with the IL-2Ra group and the IL-2Ra-PADRE group; mice immunized subcutaneously, 50 μg, Freund's adjuvant
Experimental: as §1, §2, §3, §4

PSMA = settings: FIG. 11; compared with the PSMA group and the PSMA-PADRE group; mice immunized subcutaneously, 50 μg, Freund's adjuvant
Experimental: as §1, §2, §3, §4

TOLL-1 = settings: FIG. 12; compared with the TOLL-1 group and the TOLL-1-PADRE group; mice immunized subcutaneously, 50 μg, Freund's adjuvant
Experimental: as §1, §2, §3, §4

FR-α = settings: FIG. 15; compared with the FR-α group and the FR-α-PADRE group; mice immunized subcutaneously, 50 μg, Freund's adjuvant
Experimental: as §1, §2, §3, §4

B1: PD/L1-2pPhe-PADRE: fusion antigen: PD-L1 molecule linked via GPSL to helper epitope SEQ ID NO: 3 (protein)
chain: MQLKPMEINPEMLNKVLSRLGVAGQWRFVDVLGLEEESLGSVPAPACALLLLFPLTAQHENFRKKQIEELKGQEVSPKVYFMKQTIGNSCGTIGLIHAVANNQDKLGFEDGSVLKQFLSETEKMSPEDRAKCFEKNEAIQAAHDAVAQEGQCRVDDKVNFHFILFNNVDGHLYELDGRMPFPVNHGASSEDTLLKDAAKVCREFTEREQGEVRFSAVALCGPSLA[Phe(4-NO2)]FVAAWTLKAAA
antibody titer (PD-L1 molecule): significant increase

B2: EGFR-4pPhe-PADRE: fusion antigen: EGFR linked via GPSL to helper epitope SEQ ID NO: 5 (protein)
chain: MERKERPFDVIGQLAALRRYARSLVRNSDDAEDLVHDALLRAYEKKQSFRRGGNLRTWLLSIMHNAHIDRVRQARSLARRHDEAAVEAEQSLQAGQEHAVRLKQVRDAFFHLSEEQREALHLVAIEDLSYQEAAMALDIPIGTLMSRISRARAQLREFEEKTPRAAHLRLIGGDGNEGNGPSLAKF[Phe(4-NO2)]AAWTLKAAA
antibody titer (EGFR): increased significantly

B3: CD20-5pPhe-PADRE: fusion antigen: CD20 linked via GPSL to helper epitope SEQ ID NO: 6 (protein)
chain: MTTPRNSVNGTFPAEPMKGPIAMQSGPKPLFRRMSSLVGPTQSFFMRESKTLGAVQIMNGLFHIALGGLLMIPAGIYAPICVTVWYPLWGGIMYIISGSLLAATEKNSRKCLVKGKMIMNSLSLFAAISGMILSIMDILNIKISHFLKMESLNFIRAHTPYINIYNCEPANPSEKNSPSTQYCYSIQSLFLGILSVMLIFAFFQELVIAGIVENEWKRTCSRPKSNIVLLSAEEKKEQTIEIKEEVVGLTETSSQPKNEEDIEIIPIQEEEEEETETNFPEPPQDQESSPIENDSSPGPSLAKFV[Phe(4-NO2)]AWTLKAAA
antibody titer (CD20): significant increase

B4: CD66e-6pPhe-PADRE: fusion antigen: CD66e linked via GPSL to helper epitope SEQ ID NO: 7 (protein)
chain: KLTIESTPFNVAEGKEVLLLVHNLPQHLFGYSWYKGERVDGNRQIIGYVIGTQQATPGPAYSGREIIYPNASLLIQNIIQNDTGFYTLHVIKSDLVNEEATGQFRVYPELPKPSISSNNSKPVEDKDAVAFTCEPETQDATYLWWVNNQSLPVSPRLQLSNGNRTLTLFNVTRNDTASYKCETQNPVSARRSDSVILNVLYGPDAPTISPLNTSYRSGENLNLSCHAASNPPAQYSWFVNGTFQQSTQELFIPNITVNNSGSYTCQAHNSDTGLNRTTVTTITVYAEPPKPFITSNNSNPVEDEDAVALTCEPEIQNTTYLWWVNNQSLPVSPRLQLSNDNRTLTLLSVTRNDVGPYECGIQNKLSVDHSDPVILNVLYGPDDPTISPSYTYYRPGVNLSLSCHAASNPPAQYSWLIDGNIQQHTQELFISNITEKNSGLYTCQANNSASGHSRTTVKTITVSAELPKPSISSNNSKPVEDKDAVAFTCEPEAQNTTYLWWVNGQSLPVSPRLQLSNGNRTLTLFNVTRNDARAYVCGIQNSVSANRSDPVTLDVLYGPDTPIISPPDSSYLSGANLNLSCHSASNPSPQYSWRINGIPQQHTQVLFIAKITPNNNGTYACFVSNLATGRNNSIVKSITVSASGTSPGLSAGPSLAKFVA[Phe(4-NO2)]WTLKAAA
antibody titer (CD66e): significant increase

B5: VEGFR-8pPhe-PADRE: fusion antigen: VEGFR extracellular domain linked via GPSL to helper epitope SEQ ID NO: 9 (protein)
chain: ASVGLPSVSLDLPRLSIQKDILTIKANTTLQITCRGQRDLDWLWPNNQSGSEQRVEVTECSDGLFCKTLTIPKVIGNDTGAYKCFYRETDLASVIYVYVQDYRSPFIASVSDQHGVVYITENKNKTVVIPCLGSISNLNVSLCARYPEKRFVPDGNRISWDSKKGFTIPSYMISYAGMVFCEAKINDESYQSIMYIVVVVGYRIYDVVLSPSHGIELSVGEKLVLNCTARTELNVGIDFNWEYPSSKHQHKKLVNRDLKTQSGSEMKKFLSTLTIDGVTRSDQGLYTCAASSGLMTKKNSTFVRVHEKPFVAFGSGMESLVEATVGERVRIPAKYLGYPPPEIKWYKNGIPLESNHTIKAGHVLTIMEVSERDTGNYTVILTNPISKEKQSHVVSLVVYVPPQIGEKSLISPVDSYQYGTTQTLTCTVYAIPPPHHIHWYWQLEEECANEPSQAVSVTNPYPCEEWRSVEDFQGGNKIEVNKNQFALIEGKNKTVSTLVIQAANVSALYKCEAVNKVGRGERVISFHVTRGPEITLQPDMQPTEQESVSLWCTADRSTFENLTWYKLGPQPLPIHVGELPTPVCKNLDTLWKLNATMFSNSTNDILIMELKNASLQDQGDYVCLAQDRKTKKRHCVVRQLTVLERVAPTITGNLENQTTSIGESIEVSCTASGNPPPQIMWFKDNETLVEDSGIVLKDGNRNLTIRRVRKEDEGLYTCQACSVLGCAKVEAFFIIEGAQEKTNLEGPSLAKFVAAW[Phe(4-NO2)]LKAAA
antibody titers [1]: increased significantly

B6: IL/2Ra-9pPhe-PADRE: fusion antigen: IL-2Ra linked via GPSL to helper epitope SEQ ID NO: 10 (protein)
chain: ELCDDDPPEIPHATFKAMAYKEGTMLNCECKRGFRRIKSGSLYMLCTGNSSHSSWDNQCQCTSSATRNTTKQVTPQPEEQKERKTTEMQSPMQPVDQASLPGHCREPPPWENEATERIYHFVVGQMVYYQCVQGYRALHRGPAESVCKMTHGKTRWTQPQLICTGEMETSQFPGEEKPQASPEGRPESETSCLVTTTDFQIQTEMAATMETSIFTTEYQGPSLAKFVAAWT[Phe(4-NO2)]KAAA
antibody titers (IL-2Ra): increased significantly

B7: PSMA-11pPhe-PADRE: fusion antigen: PSMA linked via GPSL to helper epitope SEQ ID NO: 12 (protein)
chain: QGQAQQQAYDRGITIFSPDGRLYQVEYAREAVKRGTASIGVRTPEGVVLAADKRSRSPLMEPTSVEKIHKADDHIGIASAGHVADARQLIDFARRQSQVNRLRYGEPIGIETLTKEVTDHIQQYTQVGGARPFGVALLIGGVENGTPRLYETDPSGTPYEWKAVSIGADRGDHQEHLEENFRDDLTLDEGIELALEAIASTSDEGTAPDGVDVATVSAETERFVELSNDEIESYLEANDLLATEDDEQTEEGPSLAKFVAAWTLK[Phe(4-NO2)]AA
antibody titers (PSMA): increased significantly

B8: TOLL/1-12pPhe-PADRE: fusion antigen: TOLL-1 linked via GPSL to helper epitope SEQ ID NO: 13 (protein)
chain: SEFLVDRSKNGLIHVPKDLSQKTTILNISQNYISELWTSDILSLSKLRILIISHNRIQYLDISVFKFNQELEYLDLSHNKLVKISCHPTVNLKHLDLSFNAFDALPICKEFGNMSQLKFLGLSTTHLEKSSVLPIAHLNISKVLLVLGETYGEKEDPEGLQDFNTESLHIVFPTNKEFHFILDVSVKTVANLELSNIKCVLEDNKCSYFLSILAKLQTNPKLSNLTLNNIETTWNSFIRILQLVWHTTVWYFSISNVKLQGQLDFRDFDYSGTSLKALSIHQVVSDVFGFPQSYIYEIFSNMNIKNFTVSGTRMVHMLCPSKISPFLHLDFSNNLLTDTVFENCGHLTELETLILQMNQLKELSKIAEMTTQMKSLQQLDISQNSVSYDEKKGDCSWTKSLLSLNMSSNILTDTIFRCLPPRIKVLDLHSNKIKSIPKQVVKLEALQELNVAFNSLTDLPGCGSFSSLSVLIIDHNSVSHPSADFFQSCQKMRSIKAGDNPFQCTCELGEFVKNIDQVSSEVLEGWPDSYKCDYPESYRGTLLKDFHMSELSCNITGPSLAKFVAAWTLKA[Phe(4-NO2)]A
antibody titers (TOLL-1): increased significantly

B9: FRα-3 ? 8pPhe-PADRE: fusion antigen: FR-α linked via GPSL to helper epitope SEQ ID NO: 16 (protein)
chain: RIAWARTELLNVCMNAKHHKEKPGPEDKLHEQCRPWRKNACCSTNTSQEAHKDVSYLYRFNWNHCGEMAPACKRHFIQDTCLYECSPNLGPWIQQVDQSWRKERVLNVPLCKEDCEQWWEDCRTSYTCKSNWHKGWNWTSGFNKCAVGAACQPFHFYFPTPTVLCNEIWTHSYKVSNYSRGSGRCIQMWFDPAQGNPNEEVARFYAAAMSGPSLAKXVAAWXLKAAA
modifications: pPhe non-natural residue; (217)..(217) Xaa stands for 4-Nitrophenylalanine.; (222)..(222) Xaa stands for 4-Nitrophenylalanine.
antibody titers (FR-α): increased significantly
